Assay results: patent publication US20240317847A1 (Bayer, published 2024)
Residue numbers refer to the chain shown, from its start. Names may count otherwise. One block for each binder: values may come before it.

Legend:
human IL-11 = target: T1, human IL-11 (human, UniProt P20809 22-199); assay: SPR, antibody captured, IL-11 as analyte
T1 construct: bought from Invigate; also called hIL-11; hIL11
T1 sequence: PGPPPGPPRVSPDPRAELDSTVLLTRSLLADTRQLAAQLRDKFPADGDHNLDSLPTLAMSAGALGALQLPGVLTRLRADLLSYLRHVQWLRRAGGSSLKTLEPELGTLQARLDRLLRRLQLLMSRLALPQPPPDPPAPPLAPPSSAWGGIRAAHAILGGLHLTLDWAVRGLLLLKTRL

murine IL-11 = target: T2, murine IL-11 (mouse, UniProt P47873 22-199); assay: SPR, antibody captured, IL-11 as analyte
T2 construct: bought from Invigate; also called mIL-11; mIL11
T2 sequence: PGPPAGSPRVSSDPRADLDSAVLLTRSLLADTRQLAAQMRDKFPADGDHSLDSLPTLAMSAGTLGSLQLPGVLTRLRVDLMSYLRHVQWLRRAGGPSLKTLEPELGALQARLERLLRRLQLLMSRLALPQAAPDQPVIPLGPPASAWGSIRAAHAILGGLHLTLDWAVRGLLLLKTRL

[1] = target: T3, human IL-11 (Invigate, e.g., lot #C121021-19) (human, UniProt P20809 22-199); assay: SPR, Biacore 8K; antibody captured on anti-human IgG Fc chip, IL-11 analyte 0-50 nM, 1:1 fit
T3 construct: Bought protein; also called hIL-11; hIL11
T3 sequence: T1 sequence
Procedure: (§1) Antibody binding affinity to hIL-11 (Invigate, Germany, e.g., lot #C121021-19) and mIL-11 (Invigate, Germany, e.g., lot #C210819-09) was detected using Biacore 8K. Each antibody was captured on an anti-human IgG Fc antibody immobilized CM5 sensor chip (GE). hIL-11 and mIL-11 at different concentrations (0, 5, 15.82 and 50 nM) in 1×HBS-EP+ (pH 7.4) (GE healthcare) were injected over the sensor chip at a flow rate of 30 μL/min for an association phase of 120 s, followed by 200 s dissociation phase. The chip was then regenerated by 10 mM Glycine, pH 1.5 after each binding cycle.
(§2) The sensorgrams of blank surface and buffer channel were subtracted from the test sensorgrams. The experimental data was fitted by 1:1 model using Langmiur analysis. Molecular weight of 19.3 kDa was used to calculate the molar concentration of human and mouse IL-11.

[2] = target: T4, murine IL-11 (Invigate, e.g., lot #C210819-09) (mouse, UniProt P47873 22-199); assay: as above
T4 construct: Bought protein; biotinylated where captured on streptavidin plates; also called mIL-11; mIL11
T4 sequence: T2 sequence
Procedure: as §1, §2

Kd (human IL-11): 12 nM
Kd (murine IL-11): 0.86 nM
B1: TPP-18068 (antibody, mouse IgG1)
heavy: EVQLLESGGGLVQPGGSLRLSCAASGFTFSSYGMHWVRQAPGKGLEWVSVISYDGSYKYYADSVKGRFTISRDNSKNTLYLQMNSLRAEDTAVYYCAAGVPDYWGQGTLVTVSSAKTTPPSVYPLAPGSAAQTNSMVTLGCLVKGYFPEPVTVTWNSGSLSSGVHTFPAVLQSDLYTLSSSVTVPSSTWPSETVTCNVAHPASSTKVDKKIVPRDCGCKPCICTVPEVSSVFIFPPKPKDVLTITLTPKVTCVVVDISKDDPEVQFSWFVDDVEVHTAQTQPREEQFNSTFRSVSELPIMHQDWLNGKEFKCRVNSAAFPAPIEKTISKTKGRPKAPQVYTIPPPKEQMAKDKVSLTCMITDFFPEDITVEWQWNGQPAENYKNTQPIMDTDGSYFVYSKLNVQKSNWEAGNTFTCSVLHEGLHNHHTEKSLSHSPGK
light: QSVLTQPPSASGTPGQRVTISCTGSSSNIGAGYDVHWYQQLPGTAPKLLIYSNNERPSGVPDRFSGSKSGTSASLAISGLRSEDEADYYCAAWDDSLNGPVFGGGTKLTVLGQPKSSPSVTLFPPSSEELETNKATLVCTITDFYPGVVTVDWKVDGTPVTQGMETTQPSKQSNNKYMASSYLTLTARAWERHSSYSCQVTHEGHTVEKSLSRADCS
notes: mIgG1, Lambda; also called WT; parent clone

Kd [1]: 15 nM
Kd [2]: 23 nM
B7: TPP-31306 (antibody, human IgG4, V domains shown)
VH: EVQLLESGGGLVQPGGSLRLSCAASGFTFSHYDMNWLRQAPGKGLEWVGVISYDASNKFYADFVKGRFTISRDNSKNTLYLQMNSLRAEDTAVYYCARTPGSHFDYWGQGTLVTVSS
VL: QSVLTQPPSASGTPGQRVTISCSGSSSNIGNNAVNWYQQLPGTAPKLLIYYDDLLPSGVPDRFSGSKSGTSASLAISGLRSEDEADYYCSAWDDSLSGVVFGGGTKLTVL
notes: consecutive numbering; also called VH-G55A / VL-N97S

Kd [1]: 15 nM
Kd [2]: 25 nM
B9: TPP-31305 (antibody, human IgG4, V domains shown)
VH: B7 VH
VL: B7 VL with S97Q
notes: consecutive numbering; also called VH-G55A / VL-N97Q

Kd [1]: 6.9 nM
Kd [2]: 3.6 nM
B12: TPP-31303 (antibody, human IgG4, V domains shown)
VH: B7 VH with D54E, A55G
VL: B7 VL with S97N, G98A
notes: consecutive numbering; also called VH-D54E / VL-G98A

Kd [1]: 11 nM
Kd [2]: 15 nM
B15: TPP-31288 (antibody, human IgG4, V domains shown)
VH: B7 VH with L11V, A55G
VL: B7 VL with S97N
notes: consecutive numbering; also called VH-L11V

Kd [1]: 48 nM
Kd [2]: 41 nM
B16: TPP-31283 (antibody, human IgG4, V domains shown)
VH: B7 VH with A55G
VL: B7 VL with L54Q, S97N
notes: consecutive numbering; also called VL-L54Q

Kd [1]: 11 nM
Kd [2]: 17 nM
B17: TPP-31294 (antibody, human IgG4, V domains shown)
VH: B7 VH with G49A, A55G
VL: B7 VL with S97N
notes: consecutive numbering; also called VH-G49A

Kd [1]: 15 nM
Kd [2]: 23 nM
B18: TPP-31304 (antibody, human IgG4, V domains shown)
VH: B7 VH
VL: B7 VL with S97N
notes: consecutive numbering; also called VH-G55A

Kd [1]: 3.8 nM
Kd [2]: 3 nM
B19: TPP-31300 (antibody, human IgG4, V domains shown)
VH: B7 VH with D54E, A55G
VL: B7 VL with S97N
notes: consecutive numbering; also called VH-D54E

Kd [1]: 170 nM
Kd [2]: 130 nM
B21: TPP-31281 (antibody, human IgG4, V domains shown)
VH: B7 VH with A55G
VL: B7 VL with D52N, S97N
notes: consecutive numbering; also called VL-D52N

Kd [1]: 9.3 nM
Kd [2]: 13 nM
B22: TPP-31287 (antibody, human IgG4, V domains shown)
VH: B7 VH with L5V, A55G
VL: B7 VL with S97N
notes: consecutive numbering; also called VH-L5V

Kd [1]: 9.1 nM
Kd [2]: 12 nM
B23: TPP-31286 (antibody, human IgG4, V domains shown)
VH: B7 VH with E1Q, A55G
VL: B7 VL with S97N
notes: consecutive numbering; also called VH-E1Q

Kd [1]: 9.3 nM
Kd [2]: 13 nM
B25: TPP-31298 (antibody, human IgG4, V domains shown)
VH: B7 VH with A55G
VL: B7 VL
notes: consecutive numbering; also called VL-N97S

Kd [1]: 8.7 nM
Kd [2]: 14 nM
B27: TPP-31297 (antibody, human IgG4, V domains shown)
VH: B7 VH with A55G
VL: B7 VL with S97Q
notes: consecutive numbering; also called VL-N97Q

Kd [1]: 2 nM
Kd [2]: 1.2 nM
B28: TPP-31278 (antibody, human IgG4, V domains shown)
VH: B7 VH with A55G
VL: B7 VL with A33Y, S97N
notes: consecutive numbering; also called VL-A33Y

Kd (human IL-11): 15 nM
Kd (murine IL-11): 0.95 nM
B31: TPP-26331 (antibody, V domains shown)
VH: EVQLLESGGGLVQPGGSLRLSCAASGFTFSSYGGHWVRQAPGKGLEWVSVISYDGSYKYYADSVKGRFTISRDNSKNTLYLQMNSLRAEDTAVYYCAAGVPDYWGQGTLVTVSS
VL: QSVLTQPPSASGTPGQRVTISCTGSSSNIGAGYDVHWYQQLPGTAPKLLIYSNNERPSGVPDRFSGSKSGTSASLAISGLRSEDEADYYCAAWDDSLNGPVFGGGTKLTVL
notes: constant regions not restated

The next lines start with the binder.

B2: TPP-31277 (antibody, human IgG4, V domains shown)
VH: B7 VH with A55G
VL: B7 VL with N31S, S97N
notes: consecutive numbering; also called VL-N31S
Kd [1]: 9.4 nM
Kd [2]: 12 nM

B3: TPP-31296 (antibody, human IgG4, V domains shown)
VH: B7 VH with A55G, F63S
VL: B7 VL with S97N
notes: consecutive numbering; also called VH-F63S
Kd [1]: 9.4 nM
Kd [2]: 12 nM

B4: TPP-31289 (antibody, human IgG4, V domains shown)
VH: B7 VH with G16R, A55G
VL: B7 VL with S97N
notes: consecutive numbering; also called VH-G16R
Kd [1]: 9.6 nM
Kd [2]: 14 nM

B5: TPP-31285 (antibody, human IgG4, V domains shown)
VH: B7 VH with A55G
VL: B7 VL with S90A, S97N
notes: consecutive numbering; also called VL-S90A
Kd [1]: 7.6 nM
Kd [2]: 18 nM

B6: TPP-31302 (antibody, human IgG4, V domains shown)
VH: B7 VH with D54E, A55G
VL: B7 VL
notes: consecutive numbering; also called VH-D54E/VL-N97S
Kd [1]: 3.8 nM
Kd [2]: 3.2 nM

B8: TPP-31295 (antibody, human IgG4, V domains shown)
VH: B7 VH with A55G, F59Y
VL: B7 VL with S97N
notes: consecutive numbering; also called VH-F59Y
Kd [1]: 20 nM
Kd [2]: 33 nM

B10: TPP-31284 (antibody, human IgG4, V domains shown)
VH: B7 VH with A55G
VL: B7 VL with L55R, S97N
notes: consecutive numbering; also called VL-L55R
Kd [1]: 11 nM
Kd [2]: 15 nM

B11: TPP-31282 (antibody, human IgG4, V domains shown)
VH: B7 VH with A55G
VL: B7 VL with D53N, S97N
notes: consecutive numbering; also called VL-D53N
Kd [1]: 13 nM
Kd [2]: 19 nM

B13: TPP-31307 (antibody, human IgG4, V domains shown)
VH: B7 VH
VL: B7 VL with S97N, G98A
notes: consecutive numbering; also called VH-G55A / VL-G98A
Kd [1]: 31 nM
Kd [2]: 28 nM

B14: TPP-31301 (antibody, human IgG4, V domains shown)
VH: B7 VH with D54E, A55G
VL: B7 VL with S97Q
notes: consecutive numbering; also called VH-D54E / VL-N97Q
Kd [1]: 3.6 nM
Kd [2]: 2.9 nM

B20: TPP-31308 (antibody, human IgG4, V domains shown)
VH: B7 VH with A55S
VL: B7 VL with S97N
notes: consecutive numbering; also called VH-G55S
Kd [1]: 40 nM
Kd [2]: 47 nM

B24: TPP-31299 (antibody, human IgG4, V domains shown)
VH: B7 VH with A55G
VL: B7 VL with S97N, G98A
notes: consecutive numbering; also called VL-G98A
Kd [1]: 18 nM
Kd [2]: 16 nM

B26: TPP-31293 (antibody, human IgG4, V domains shown)
VH: B7 VH with L37V, A55G
VL: B7 VL with S97N
notes: consecutive numbering; also called VH-L37V
Kd [1]: 4.8 nM
Kd [2]: 12 nM

B29: TPP-31290 (antibody, human IgG4, V domains shown)
VH: B7 VH with H31S, A55G
VL: B7 VL with S97N
notes: consecutive numbering; also called VH-H31S
Kd [1]: 290 nM
Kd [2]: 300 nM

B30: TPP-31292 (antibody, human IgG4, V domains shown)
VH: B7 VH with N35H, A55G
VL: B7 VL with S97N
notes: consecutive numbering; also called VH-N35H
Kd [1]: 11 nM
Kd [2]: 19 nM
